Test results from PMC11543664.

Assays:
[1] = molecular target: DosP^FLAG-R97A (full-length DosP with R97A and three copies of the FLAG motif on its C-terminus) (Escherichia coli); test: cryo-EM structure
[2] = molecular target: DosP^WT (wild-type full-length DosP, tag-free after TEV cleavage) (Escherichia coli); test: cryo-EM structure

Substance	stoichiometry N [1]	stoichiometry N [2]
DosP^FLAG-R97A (full-length DosP with R97A and three copies of the FLAG motif on its C-terminus) (enzyme)	2	–
DosP^WT (wild-type full-length DosP, tag-free after TEV cleavage) (enzyme)	–	2
